Data on 4 molecules can be found in US20200325237A1 (AVIDITY BIOSCIENCES, published 2020).

By Kd is commonly meant the constant that tells how readily two partners part at equilibrium. As a reminder, the koff is a measure of how fast the partners let go of each other. A higher koff goes with a short-lived complex. By kon is commonly meant the second-order rate constant of association.

Where a chain is given by its changes, count along the chain named.

T1: TfR2 (transferrin receptor 2) (UniProt Q9UP52 105-801, limits assumed)
T1 sequence (looked up): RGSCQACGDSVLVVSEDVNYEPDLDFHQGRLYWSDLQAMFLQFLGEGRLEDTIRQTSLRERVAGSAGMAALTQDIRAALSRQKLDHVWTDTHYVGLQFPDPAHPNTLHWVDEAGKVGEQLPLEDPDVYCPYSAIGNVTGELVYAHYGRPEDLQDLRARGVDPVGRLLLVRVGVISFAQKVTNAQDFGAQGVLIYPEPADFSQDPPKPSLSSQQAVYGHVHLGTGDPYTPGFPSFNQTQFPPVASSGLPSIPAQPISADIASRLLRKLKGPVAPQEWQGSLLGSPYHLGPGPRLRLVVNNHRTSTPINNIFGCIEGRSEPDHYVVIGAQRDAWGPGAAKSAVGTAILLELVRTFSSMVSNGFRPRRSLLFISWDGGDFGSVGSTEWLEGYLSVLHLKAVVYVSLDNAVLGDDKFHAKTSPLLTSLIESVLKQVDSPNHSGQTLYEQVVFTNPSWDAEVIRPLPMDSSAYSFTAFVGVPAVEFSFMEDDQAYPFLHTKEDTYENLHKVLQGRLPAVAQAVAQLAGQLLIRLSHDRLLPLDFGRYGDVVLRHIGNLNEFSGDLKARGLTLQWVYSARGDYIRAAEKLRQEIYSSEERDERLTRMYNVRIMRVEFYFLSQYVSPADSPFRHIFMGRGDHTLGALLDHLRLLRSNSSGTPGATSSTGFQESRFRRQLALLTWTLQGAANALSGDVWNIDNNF

B1: 13E4-Variant 9i (antibody, human IgG1, kappa, L234A L235A)
heavy: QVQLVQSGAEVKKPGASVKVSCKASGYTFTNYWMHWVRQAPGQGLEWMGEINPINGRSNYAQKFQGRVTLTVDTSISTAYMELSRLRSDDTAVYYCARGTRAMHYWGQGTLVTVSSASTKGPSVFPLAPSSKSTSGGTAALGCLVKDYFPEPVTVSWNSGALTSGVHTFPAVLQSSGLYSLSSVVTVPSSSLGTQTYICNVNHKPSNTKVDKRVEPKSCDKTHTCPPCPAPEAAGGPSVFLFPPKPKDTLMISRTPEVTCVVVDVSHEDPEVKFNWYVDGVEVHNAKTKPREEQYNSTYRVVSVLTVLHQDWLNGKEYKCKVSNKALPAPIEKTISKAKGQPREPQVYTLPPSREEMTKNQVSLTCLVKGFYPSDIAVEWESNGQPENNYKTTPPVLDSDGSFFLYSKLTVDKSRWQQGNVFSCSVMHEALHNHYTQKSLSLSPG
light: DIQMTQSPSSLSASVGDRVTITCRTSENIYNNLAWYQQKPGKAPKLLIYAATNLAEGVPSRFSGSGSGTDYTLTISSLQPEDFATYYCQHFWGTPLTFGGGTKVEIKRTVAAPSVFIFPPSDEQLKSGTASVVCLLNNFYPREAKVQWKVDNALQSGNSQESVTEQDSKDSTYSLSSTLTLSKADYEKHKVYACEVTHQGLSSPVTKSFNRGEC
notes: Humanized hIgG1 with Fc mutations; also called hIgG1 TfR-Var9i
B2: 13E4-Variant 9ii (antibody, human IgG1, kappa, L234A L235A)
heavy: QVQLVQSGAEVKKPGASVKVSCKASGYTFTNYWMHWVRQAPGQGLEWMGEINPINGRSNYAQKFQGRVTLTVDTSISTAYMELSRLRSDDTAVYYCARGTRAMHYWGQGTLVTVSSASTKGPSVFPLAPSSKSTSGGTAALGCLVKDYFPEPVTVSWNSGALTSGVHTFPAVLQSSGLYSLSSVVTVPSSSLGTQTYICNVNHKPSNTKVDKRVEPKSCDKTHTCPPCPAPEAAGGPSVFLFPPKPKDTLMISRTPEVTCVVVDVSHEDPEVKFNWYVDGVEVHNAKTKPREEQYNSTYRVVSVLTVLHQDWLNGKEYKCGVSNKALPAPIEKTISKAKGQPREPQVYTLPPSREEMTKNQVSLTCLVKGFYPSDIAVEWESNGQPENNYKTTPPVLDSDGSFFLYSKLTVDKSRWQQGNVFSCSVMHEALHNHYTQKSLSLSPG
light: B1 light
notes: Humanized hIgG1 with Fc mutations; also called hIgG1 TfR-Var9ii
B3: 13E4-Variant 15i (antibody, human IgG1, kappa, L234A L235A)
heavy: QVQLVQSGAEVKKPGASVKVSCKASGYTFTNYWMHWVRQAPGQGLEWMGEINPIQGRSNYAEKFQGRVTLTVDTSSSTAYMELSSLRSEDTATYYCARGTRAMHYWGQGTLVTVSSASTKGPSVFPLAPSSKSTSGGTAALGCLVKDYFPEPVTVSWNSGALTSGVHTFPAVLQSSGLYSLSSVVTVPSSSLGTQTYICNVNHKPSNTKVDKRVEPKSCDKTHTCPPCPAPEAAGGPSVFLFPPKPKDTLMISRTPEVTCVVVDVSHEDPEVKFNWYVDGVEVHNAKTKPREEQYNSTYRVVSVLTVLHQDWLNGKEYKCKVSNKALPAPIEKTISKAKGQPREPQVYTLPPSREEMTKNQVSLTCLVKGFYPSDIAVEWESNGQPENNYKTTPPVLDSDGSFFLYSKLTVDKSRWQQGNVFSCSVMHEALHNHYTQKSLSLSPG
light: B1 light with N31S, A51G, E56D, T85N
notes: Humanized hIgG1 with Fc mutations; also called hIgG1 TfR-Var15i
B4: 13E4-Variant 9iii (antibody, human IgG1, kappa, L234A L235A)
heavy: B2 heavy with G321K, L327R
light: B1 light
notes: Humanized hIgG1 with Fc mutations; also called hIgG1 TfR-Var9iii

T2 sequence (P02786 89-760 limits assumed): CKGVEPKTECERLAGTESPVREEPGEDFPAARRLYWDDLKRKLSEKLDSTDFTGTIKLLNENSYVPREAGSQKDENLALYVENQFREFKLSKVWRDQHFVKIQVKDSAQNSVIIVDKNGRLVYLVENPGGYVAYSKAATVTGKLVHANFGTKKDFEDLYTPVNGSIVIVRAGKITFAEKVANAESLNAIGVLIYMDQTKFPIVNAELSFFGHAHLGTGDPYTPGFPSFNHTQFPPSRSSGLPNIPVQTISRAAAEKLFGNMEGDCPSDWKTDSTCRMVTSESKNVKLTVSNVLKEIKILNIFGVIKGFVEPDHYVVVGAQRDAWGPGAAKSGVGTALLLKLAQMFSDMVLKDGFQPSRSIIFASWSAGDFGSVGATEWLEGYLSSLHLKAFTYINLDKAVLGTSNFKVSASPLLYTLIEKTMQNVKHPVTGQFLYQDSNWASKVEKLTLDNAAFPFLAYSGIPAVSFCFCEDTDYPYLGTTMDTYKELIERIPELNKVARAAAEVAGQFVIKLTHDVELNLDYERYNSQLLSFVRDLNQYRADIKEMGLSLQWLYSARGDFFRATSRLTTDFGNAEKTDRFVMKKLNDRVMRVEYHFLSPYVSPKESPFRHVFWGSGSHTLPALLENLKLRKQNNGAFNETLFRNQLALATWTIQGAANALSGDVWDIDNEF
T4 sequence (P02786 89-760 limits assumed): as above
T3 sequence (chain, as listed by the source C07H C07H): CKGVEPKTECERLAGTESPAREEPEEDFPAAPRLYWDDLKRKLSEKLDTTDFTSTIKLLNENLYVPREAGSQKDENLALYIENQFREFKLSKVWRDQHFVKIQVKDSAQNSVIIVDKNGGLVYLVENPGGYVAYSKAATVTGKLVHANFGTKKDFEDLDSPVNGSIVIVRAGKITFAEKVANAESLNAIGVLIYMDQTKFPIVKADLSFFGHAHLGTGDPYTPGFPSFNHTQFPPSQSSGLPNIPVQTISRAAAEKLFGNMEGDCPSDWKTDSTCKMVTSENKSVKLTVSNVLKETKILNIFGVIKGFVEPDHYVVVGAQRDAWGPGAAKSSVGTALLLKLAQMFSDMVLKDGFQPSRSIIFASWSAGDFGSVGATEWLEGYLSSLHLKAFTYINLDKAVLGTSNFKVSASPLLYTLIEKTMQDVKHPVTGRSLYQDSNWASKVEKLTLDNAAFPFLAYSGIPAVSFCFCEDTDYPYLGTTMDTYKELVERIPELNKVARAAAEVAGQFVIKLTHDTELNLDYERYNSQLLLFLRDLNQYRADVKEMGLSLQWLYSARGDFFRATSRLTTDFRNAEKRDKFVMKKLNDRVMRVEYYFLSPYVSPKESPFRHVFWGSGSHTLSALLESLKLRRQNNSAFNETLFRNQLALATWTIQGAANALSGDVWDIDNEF

In the first assay the target is T1, TfR2 (transferrin receptor 2). The assay is described as follows: A450 plate assay on TfR2 (method not described in the text).
For the molecule B1, the binding result is “no binding (tested: 1000 nM)”.

Consider B2, for which the binding result is “no binding (tested: 1000 nM)”.

Regarding B3, the binding result is “no binding (tested: 1000 nM)”.

As for B4, the binding result is “no binding (tested: 1000 nM)”.

A further assay has as its target T2, hTfR (human transferrin receptor, source and construct not stated) (human, UniProt P02786 89-760, limits assumed). The assay is described as follows: SPR (BioRad ProteOn XPR36), mAb captured on Protein A, hTfR as analyte, 25 C. The protocol:
The binding kinetics of nine exemplary humanized anti-TfR antibodies and the parent chimeric antibody were characterized. Studies were run on a BioRad ProteOn XPR36 optical biosensor using a GLM sensor chip coated with Protein A for mAb capture. Running buffer included 10 mM EPES, 150 mM NaCl, pH 7.4 with 0.05 tween-20 with 0.2 mg/ml BSA. Data were collected at 25 degrees C. All mAbs were diluted into running buffer to 2 ug/ml based on the stock concentration provided. Each was then captured for 40 seconds over a Protein A surface.
hTfR (100 ug) was dissolved into […] of water to yield a 4.3 uM stock concentration. hTfR was dilted to 43 nM as the highest concentration and tested in a 3 fold dilution series. hTfR was injected at 200 ul/min for 2 minutes followed by a one-hour dissociation phase.
For the molecule B1, the Kd amounted to 0.00121 nM, the koff was found to be 1.02e-06 s⁻¹ and the on-rate (kon) was found to be 843000 M⁻¹ s⁻¹.

B2 came in with a Kd of 0.00231 nM, an off-rate (koff) of 1.81e-06 s⁻¹ and an on-rate (kon) of 784000 M⁻¹ s⁻¹.

Molecule B3 came in with a Kd of 0.00851 nM, a koff of 6.13e-06 s⁻¹ and an association rate constant (kon) of 720000 M⁻¹ s⁻¹.

As to B4, binding was characterised by a dissociation constant (Kd) of 0.00527 nM, the koff was 4.17e-06 s⁻¹ and the on-rate constant (kon) amounted to 791000 M⁻¹ s⁻¹.

The next assay deals with T2, hTfR (human transferrin receptor, …). The assay is described as follows: ELISA; ratio of the Kd on HFE-captured hTfR to the Kd on directly coated hTfR.
Consider B1, for which the “Kd(HFE+TfR)/Kd(TfR)” value came out at 13.6.

Regarding B2, the “Kd(HFE+TfR)/Kd(TfR)” value was found to be 10.4.

As for B3, the “Kd(HFE+TfR)/Kd(TfR)” value was 8.5.

In the case of B4, the “Kd(HFE+TfR)/Kd(TfR)” value came to 11.4.

The target is the same in another assay. The assay is described as follows: ELISA; ratio of the Kd on transferrin-captured hTfR to the Kd on directly coated hTfR. The protocol: (§1) Antibodies were biotinylated using 50 fold molar excess of EZ-Link No weigh NHS-Biotin (Thermo Scientific A39256) following manufacturer's instructions. Half-well high-bind plates (Costar #3690) were coated with 500 ng/mL purified human holo-transferrin (R&D Systems 2914-HT) in PBS at 4° C. overnight. For comparison, plates were coated directly with hTfR. Plates were washed four times with 100 μL of Tris buffered saline+Tween (20×TBST, Cell Signaling 9997S). 100 μL of Superblock (ThermoFisher PI-37535) was added to each well and incubated for 1 hour at room temperature. The wash step was repeated before the addition of the hTfR (200 ng/mL in 25 μl) to the transferrin plates, or Superblock to the hTfR plates, and incubated for 30 minutes. Biotinylated antibodies were diluted to 20 nM for the high concentration and added to the plates with 3-fold serial dilution. 25 μl/well was added to the 25 μl already in the plate. Plates were incubated for 1 hour, and wash step was repeated. Streptavidin-HRP (R&D Systems DY998) was added following recommended dilution on the package insert, and a final wash step was done. Binding was measured by the addition of 50 μL of 1-Step™ Ultra TMB-ELISA (ThermoFisher, 34028), incubated for 5 minutes, and the reaction was stopped with the addition of 25 μL of Stop Solution 2N sulfuric Acid (R&D Systems DY994). Absorbance was measured at 450 nm, with reference wavelength 570 nm subtracted. Binding constants were determined using GraphPad Prism Specific Binding with Hill Slope. Change in antibody binding constants in the presence versus absense of transferrin is considered relative to the commercially available antibody which is known to have an overlapping epitope with transferrin (AF2474, R&D Systems).
For orientation: An ELISA detects its analyte on a solid surface through an enzyme-linked reagent.
Turning to B1, the “Kd(Tf+TfR)/Kd(TfR)” value worked out at 2.2.

As to B2, the “Kd(Tf+TfR)/Kd(TfR)” value was determined as 2.6.

As for B3, the “Kd(Tf+TfR)/Kd(TfR)” value came to 2.9.

For the molecule B4, the “Kd(Tf+TfR)/Kd(TfR)” value was 2.5.

A further assay concerns the target T3, recombinant cyno transferrin receptor protein (Sino Biological 90253-C07H) (cyno, UniProt H9EXL1 89-760 (rhesus entry)).
T3 construct: Bought protein coated on ELISA plates; also called recombinant cyno TfR1; cynoTfR1
The assay can be described thus: ELISA on plate-coated recombinant cyno TfR1 (CD71); fit: specific binding with Hill slope. Here is the method: (§2) Half-well high-binding 96-well plates (Costar #3690) were coated with recombinant human transferrin receptor protein (Sino Biological 11020-H07H) or recombinant cyno transferrin receptor protein (Sino Biological 90253-C07H) at 1 ng/μL in PBS (Gibco 14190) and incubated overnight at 4° C. Plates were washed four times with 100 μL of Tris buffered saline+Tween (20×TBST, Cell Signaling 9997S). 100 μL of Superblock (ThermoFisher PI-37535) was added to each well and incubated for 1 hour at room temperature. The wash step was repeated before the addition of the samples. Samples were added at concentrations up to 10 nM, 50 μL/well. Plates were incubated for another hour at room temp and wash step repeated. Secondary antibody (Peroxidase AffiniPure Goat Anti-Human IgG, Fcγ Fragment Specific, Jackson Immunoresearch, 109-035-098) was diluted 1:5000 in Superblock and 50 μL/well added. Plates were incubated for 1 hour at room temperature and washed one more time. Binding was measured by the addition of 50 μL of 1-Step™ Ultra TMB-ELISA (ThermoFisher, 34028), incubated for 5 minutes, and the reaction was stopped with the addition of 25 μL of Stop Solution 2N sulfuric Acid (R&D Systems DY994). Absorbance was measured at 450 nm, with reference wavelength 570 nm subtracted. Binding constants were determined using GraphPad Prism Specific Binding with Hill Slope.
Turning to B1, the Bmax is 95 % max binding, the Kd turned out to be 0.011 nM and the h stood at 1.51.

As to B2, the Bmax was found to be 94.3 % max binding, the Kd was determined as 0.0114 nM and the h turned out to be 1.74.

In the case of B3, the Bmax amounted to 94.2 % max binding, the dissociation constant Kd came out at 0.0125 nM and the h is 1.55.

As for B4, the Bmax amounted to 94 % max binding, the dissociation constant (Kd) worked out at 0.0137 nM and the h is 1.74.

The next assay addresses T4, recombinant human transferrin receptor protein (Sino Biological 11020-H07H) (human, UniProt P02786 89-760).
T4 construct: Bought protein coated on ELISA plates; also called recombinant human TfR1; human TfR1
The assay can be described thus: ELISA on plate-coated recombinant human TfR1 (CD71); fit: specific binding with Hill slope. Here is the method:
as §2
With B1, the Bmax turned out to be 95.7 % max binding, the equilibrium dissociation constant (Kd) was 0.00973 nM and the h was found to be 1.22.

The next assay has as its target T2, hTfR (human transferrin receptor, …). The assay is described as follows: ELISA, biotinylated antibody on hTfR captured by plate-coated HFE (HFE+TfR); fit: specific binding with Hill slope.
As for B1, the Bmax is 2.79 A450, binding was characterised by a dissociation constant (Kd) of 0.341 nM and the h turned out to be 1.37.

Molecule B2 gave a Bmax of 3 A450, a Kd of 0.229 nM and a h of 1.36.

B3 showed a Bmax of 2.7 A450, a Kd of 0.182 nM and a h of 1.65.

The molecule B4 came in with a Bmax of 3.14 A450, a dissociation constant (Kd) of 0.248 nM and a h of 1.38.

Another assay has the same target. The assay is described as follows: ELISA, biotinylated antibody on hTfR captured by plate-coated human holo-transferrin (Tf+TfR); fit: specific binding with Hill slope. Here is the method:
as §1
B1 came in with a Bmax of 3.53 A450, a Kd of 0.0559 nM and a h of 1.45.

The molecule B2 yielded a Bmax of 3.51 A450, an equilibrium dissociation constant (Kd) of 0.057 nM and a h of 1.48.

B3 had a Bmax of 3.47 A450, a Kd of 0.0619 nM and a h of 1.56.

Molecule B4 yielded a Bmax of 3.53 A450, a Kd of 0.0546 nM and a h of 1.49.

The next assay has as its target T4, recombinant human transferrin receptor …. The assay can be described thus: ELISA on plate-coated recombinant human TfR1 (CD71); fit: specific binding with Hill slope (row labels blank in the lower block; row taken by the order Bmax, h, Kd). The protocol: as §2
For B2, the Bmax is 95.2 % max binding, the Kd stood at 0.00823 nM and the h turned out to be 1.57.

B3: the Bmax was 95.3 % max binding, the Kd amounted to 0.00713 nM and the h is 1.29.

As to B4, the Bmax was 93.8 % max binding, the dissociation constant (Kd) was determined as 0.012 nM and the h came out at 1.56.
